B1: Chaperone ric-8 (Caenorhabditis elegans), Q9GSX9-1 (parent)
chain: MSEELHSDLIASIFGGKPAKIEEFFSKWNFANAAVSKFDMANSAKNELGDRICEVIENGELTHVLLETIKILSREKDGLEGLLNDPLCDKILAFAELSSNENNSKTVHTLMEAQKCLINTLFHSQRMRDRFYANPKTGENLQFFLGEFEENRRKTSSIDWIRLLNPVQAAEIWYFYHRIAFIATALGREFQKNWANDPKTIDSLLLAVEICTNRSENSTQDINRATEALKTFFNVFCHFHGDVKAIDHKNAAKTCQILRDAICSDVLTDDVVQSAIHCLSVPPLPMVLSVLCGKNSKNNGGENEEEKFFVEELSNMQLTEAILMHLDKQLTKVVALLLNDAPNQQQNPMLSAEASTLTDLVGPYFQVLARLCTDSKYVRRYCRIRVIPPLVSEEVQKRPEENNTLRGRIARIMMLPSSTKDVAAEFLFIICKRSVNRMIKYLGFGHSAGHLANLGLLGQINQPKHASDSEDSETEDYNQIKDSVNPVTGAIYPSDHGSALAGMSEEQKEYEAMKLVDAMNQMMETGIVKPGTIGDDGKIREVSHVLELLKNAPEPAPAENSDSDEE

Variants of: B1
Settings: with gnao_caeel goa-1, P51875
gnao_caeel goa-1, P51875, sequence (P51875 whole entry): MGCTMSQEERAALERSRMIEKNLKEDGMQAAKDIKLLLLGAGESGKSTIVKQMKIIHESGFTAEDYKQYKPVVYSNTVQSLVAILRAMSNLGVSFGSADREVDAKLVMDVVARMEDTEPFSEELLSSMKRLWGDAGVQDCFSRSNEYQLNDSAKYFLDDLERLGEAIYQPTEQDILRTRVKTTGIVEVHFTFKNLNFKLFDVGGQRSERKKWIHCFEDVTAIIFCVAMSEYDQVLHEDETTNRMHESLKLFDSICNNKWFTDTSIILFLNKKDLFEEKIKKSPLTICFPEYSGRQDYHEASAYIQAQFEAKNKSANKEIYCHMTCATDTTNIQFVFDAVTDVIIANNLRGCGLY

Variant	effect of a mutation on the interaction
MSEELHSDLIASIFGGKPAKIEEFFSKWNFANAAVSKFDMANSAKNELGDRICEVIENGELTHVLLETIKILSREKDGLEGLLNDPLCDKILAFAELSSNENNSKTVHTLMEAQKCLINTLFHSQRMRDRFYANPKTGENLQFFLGEFEENRRKTSSIDWIRLLNPVQAAEIWYFYHRIAFIATALGREFQKNWANDPKTIDSLLLAVEICTNRSENSTQDINRATEALKTFFNVFCHFHGDVKAIDHKNAAKTCQILRDAICSDVLTDDVVQSEIHCLSVPPLPMVLSVLCGKNSKNNGGENEEEKFFVEELSNMQLTEAILMHLDKQLTKVVALLLNDAPNQQQNPMLSAEASTLTDLVGPYFQVLARLCTDSKYVRRYCRIRVIPPLVSEEVQKRPEENNTLRGRIARIMMLPSSTKDVAAEFLFIICKRSVNRMIKYLGFGHSAGHLANLGLLGQINQPKHASDSEDSETEDYNQIKDSVNPVTGAIYPSDHGSALAGMSEEQKEYEAMKLVDAMNQMMETGIVKPGTIGDDGKIREVSHVLELLKNAPEPAPAENSDSDEE [A275E]	decreasing interaction
MSEELHSDLIASIFGGKPAKIEEFFSKWNFANAAVSKFDMANSAKNELGDRICEVIENGELTHVLLETIKILSREKDGLEGLLNDPLCDKILAFAELSSNENNSKTVHTLMEAQKCLINTLFHSQRMRDRFYANPKTGENLQFFLGEFEENRRKTSSIDWIRLLNPVQAAEIWYFYHRIAFIATALGREFQKNWANDPKTIDSLLLAVEICTNRSENSTQDINRATEALKTFFNVFCHFHGDVKAIDHKNAAKTCQILRDAICSDVFTDDVVQSAIHCLSVPPLPMVLSVLCGKNSKNNGGENEEEKFFVEELSNMQLTEAILMHLDKQLTKVVALLLNDAPNQQQNPMLSAEASTLTDLVGPYFQVLARLCTDSKYVRRYCRIRVIPPLVSEEVQKRPEENNTLRGRIARIMMLPSSTKDVAAEFLFIICKRSVNRMIKYLGFGHSAGHLANLGLLGQINQPKHASDSEDSETEDYNQIKDSVNPVTGAIYPSDHGSALAGMSEEQKEYEAMKLVDAMNQMMETGIVKPGTIGDDGKIREVSHVLELLKNAPEPAPAENSDSDEE [L267F]	increasing interaction
